Laboratory results as given in patent US20030054360.

Experiments:
Interleukin-4 = target: T1, Interleukin-4 (UniProt P05112); conditions: 5-BrdU replaces T; photocrosslinking rate at 25 nM target; KD printed as ??
T1 sequence: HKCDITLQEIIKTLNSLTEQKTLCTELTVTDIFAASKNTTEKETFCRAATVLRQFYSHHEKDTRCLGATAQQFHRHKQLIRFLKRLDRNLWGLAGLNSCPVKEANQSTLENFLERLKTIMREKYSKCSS

UGT 1A3 = target: T2, UGT 1A3 (UniProt P35503); test: filter; conditions: 5-BrdU replaces T; apparent photocrosslink KD; plateau 70%
T2 sequence: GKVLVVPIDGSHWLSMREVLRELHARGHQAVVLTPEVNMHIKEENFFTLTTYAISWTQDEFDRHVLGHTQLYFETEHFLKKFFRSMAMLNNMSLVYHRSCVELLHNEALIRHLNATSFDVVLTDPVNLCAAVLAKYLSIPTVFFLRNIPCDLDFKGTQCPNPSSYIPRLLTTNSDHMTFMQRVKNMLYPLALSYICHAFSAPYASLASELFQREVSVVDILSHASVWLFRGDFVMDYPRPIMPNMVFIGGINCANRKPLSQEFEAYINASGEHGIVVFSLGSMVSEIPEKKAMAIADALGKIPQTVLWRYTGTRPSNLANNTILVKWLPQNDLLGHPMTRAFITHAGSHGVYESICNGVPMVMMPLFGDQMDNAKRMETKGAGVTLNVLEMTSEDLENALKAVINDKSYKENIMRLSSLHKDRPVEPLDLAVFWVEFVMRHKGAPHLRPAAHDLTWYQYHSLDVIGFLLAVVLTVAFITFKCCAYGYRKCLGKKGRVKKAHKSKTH

UGT 1A10 = target: T3, UGT 1A10 (UniProt Q9HAW8); test: filter; conditions: 5-BrdU replaces T; apparent photocrosslink KD; plateau 72%
T3 sequence: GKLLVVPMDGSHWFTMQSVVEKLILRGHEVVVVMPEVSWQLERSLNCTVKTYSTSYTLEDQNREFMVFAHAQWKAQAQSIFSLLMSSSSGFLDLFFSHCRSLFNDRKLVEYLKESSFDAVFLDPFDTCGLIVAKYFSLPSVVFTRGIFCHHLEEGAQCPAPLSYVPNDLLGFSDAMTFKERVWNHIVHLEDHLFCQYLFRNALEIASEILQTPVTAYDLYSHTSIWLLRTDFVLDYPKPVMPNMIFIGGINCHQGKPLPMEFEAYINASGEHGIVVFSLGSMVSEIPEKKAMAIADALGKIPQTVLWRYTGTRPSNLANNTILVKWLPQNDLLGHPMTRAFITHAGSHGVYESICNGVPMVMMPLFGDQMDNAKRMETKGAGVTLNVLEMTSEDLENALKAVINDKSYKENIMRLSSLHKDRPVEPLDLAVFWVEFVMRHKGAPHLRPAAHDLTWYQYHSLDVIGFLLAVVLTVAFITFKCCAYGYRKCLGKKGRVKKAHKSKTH

## ATATATATGGGAGGACGATGCGGGCACAGGTTCTATCAACGTTGTCCTGAGTAATTGACCTGCAGACGACGAGCGGGAAAAAAAA [IL-4 pool 012 clone 63]
Interleukin-4
  photocrosslinking rate: 0.71 J-1 cm2

## ATATATATGGGAGGACGATGCGGGCCGACTTTGTCACCGAGTGCATCCGAGGTCAGACGACGAGCGGGAAAAAAAA [UGT 1A3 pool 141 clone 53]
UGT 1A3
  Kd: 3.9 nM

## ATATATATGGGAGGACGATGCGGCACCACTTCTTTACCTCACTCTTTCTGCAGCAGACGACGAGCGGGAAAAAAAA [UGT 1A10 pool 140 clone 45]
UGT 1A10
  Kd: 2.1 nM
